Our source for the relative binding activity values is patent US20150299296A1 (Chugai, published 2015).

What all share (assay): SPR; IL6R-BF648/IL6R-L=100
(In general: In SPR one partner is held on a chip, and binding of the other changes the refractive index at the surface.)

Assay [1] has as its target T1, human FcγRIIIa type V extracellular domain with C-terminal His tag (human, UniProt P08637 17-208).
T1 construct: extracellular domain; also called FcgRIIIaV; FcγRIIIaV
As to the method:
(§1) IL6R-L was utilized as the common antibody L chain for all of the antibodies, the antibodies were expressed and purified according to the method of Reference Example 1, and binding to each of the FcγRs (FcγRIa, FcγRIIa type H, FcγRIIa type R, FcγRIIb, and FcγRIIIa type V) was comprehensively evaluated by the method of Reference Example 2.
(§2) Relative binding activities were calculated for the results of analyzing interactions with the respective FcγRs according to the following method.

For assay [2], the target named is T2, human FcγRIa extracellular domain with C-terminal His tag (human, UniProt P12314 16-292).
T2 construct: Whole entry named; also called FcgRIa; FcgIa
As to the method: as §1, §2

The target of assay [3] is T3, human FcγRIIa type H extracellular domain with C-terminal His tag (human, UniProt P12318 34-217).
T3 construct: extracellular domain; also called FcgRIIaH; FcγRIIa H
T3 sequence (looked up): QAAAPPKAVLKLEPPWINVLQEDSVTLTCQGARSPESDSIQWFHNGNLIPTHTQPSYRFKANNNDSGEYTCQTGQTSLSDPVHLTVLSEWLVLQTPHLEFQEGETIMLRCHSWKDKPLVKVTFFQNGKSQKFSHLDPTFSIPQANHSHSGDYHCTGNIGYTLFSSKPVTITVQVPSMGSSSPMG
As to the method:
as §1, §2

Assay [4] has as its target T4, human FcγRIIb extracellular domain with C-terminal His tag (human, UniProt P31994 43-217).
T4 construct: extracellular domain; For crystals it was expressed with kifunensine and trimmed with Endo F1; also called FcgRIIb; FcγRIIb extracellular region
T4 sequence (looked up): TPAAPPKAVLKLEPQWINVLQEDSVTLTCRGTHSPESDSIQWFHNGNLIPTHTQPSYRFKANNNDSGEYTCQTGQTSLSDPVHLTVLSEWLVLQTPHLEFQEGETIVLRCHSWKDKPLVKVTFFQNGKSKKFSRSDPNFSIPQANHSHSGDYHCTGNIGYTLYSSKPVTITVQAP
As to the method:
as §1, §2

T2 sequence (P12314 16-292): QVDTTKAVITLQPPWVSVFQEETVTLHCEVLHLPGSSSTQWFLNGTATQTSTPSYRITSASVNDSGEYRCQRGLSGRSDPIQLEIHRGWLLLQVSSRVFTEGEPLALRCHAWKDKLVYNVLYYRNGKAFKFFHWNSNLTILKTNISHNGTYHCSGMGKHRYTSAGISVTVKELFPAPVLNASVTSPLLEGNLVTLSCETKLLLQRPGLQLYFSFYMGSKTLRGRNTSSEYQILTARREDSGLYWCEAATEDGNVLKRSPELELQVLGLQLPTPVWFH
T1 sequence (P08637 17-208 F176V): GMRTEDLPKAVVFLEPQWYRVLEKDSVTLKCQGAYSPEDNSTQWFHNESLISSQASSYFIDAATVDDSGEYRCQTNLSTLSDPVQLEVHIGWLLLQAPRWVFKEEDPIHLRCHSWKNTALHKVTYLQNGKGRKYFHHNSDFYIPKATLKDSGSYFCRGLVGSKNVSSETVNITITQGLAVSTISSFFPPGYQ

B1: IL6R-BP087/IL6R-L (antibody, human IgG1, kappa, name in EU numbering)
heavy: QVQLQESGPGLVKPSETLSLTCAVSGHSISHDHAWSWVRQPPGEGLEWIGFISYSGITNYNPSLQGRVTISRDNSKNTLYLQMNSLRAEDTAVYYCARSLARTTAMDYWGEGTLVTVSSASTKGPSVFPLAPSSKSTSGGTAALGCLVKDYFPEPVTVSWNSGALTSGVHTFPAVLQSSGLYSLSSVVTVPSSSLGTQTYICNVNHKPSNTKVDKKVEPKSCDKTHTCPPCPAPEYLGGDSVFLFPPKPKDTLMISRTPEVTCVVVDVSHEDPEVKFNWYVDGVEVHNAKTKPREEQYNSTYRVVSVLTVLHQDWLNGKEYKCKVSNKALPKPIEKTISKAKGQPREPQVYTLPPSRDELTKNQVSLTCLVKGFYPSDIAVEWESNGQPENNYKTTPPVLDSDGSFFLYSKLTVDKSRWQQGNVFSCSVMHEALHNHYTQESLSLSP
light: not shown
On to B1, for which the relative binding activity came to 158 in assay [1], 33 in assay [2], 179 in assay [3] and 137 in assay [4].

B2: IL6R-BP145/IL6R-L (antibody, human IgG1, kappa, name in EU numbering)
heavy: QVQLQESGPGLVKPSETLSLTCAVSGHSISHDHAWSWVRQPPGEGLEWIGFISYSGITNYNPSLQGRVTISRDNSKNTLYLQMNSLRAEDTAVYYCARSLARTTAMDYWGEGTLVTVSSASTKGPSVFPLAPSSKSTSGGTAALGCLVKDYFPEPVTVSWNSGALTSGVHTFPAVLQSSGLYSLSSVVTVPSSSLGTQTYICNVNHKPSNTKVDKKVEPKSCDKTHTCPPCPAPEYLGDDSVFLFPPKPKDTLMISRTPEVTCVVVDVSHEDPEVKFNWYVDGVEVHNAKTKPREEQYNSTYRVVSVLTVLHQDWLNGKEYKCKVSNKALPAPIEKTISKAKGQPREPQVYTLPPSRDELTKNQVSLTCLVKGFYPSDIAVEWESNGQPENNYKTTPPVLDSDGSFFLYSKLTVDKSRWQQGNVFSCSVMHEALHNHYTQESLSLSP
light: not shown
With B2, the relative binding activity in assay [1] worked out at 153; in assay [2], 41; in assay [3], 224; in assay [4], 152.

B3: IL6R-BP129/IL6R-L (antibody, human IgG1, kappa, name in EU numbering)
heavy: QVQLQESGPGLVKPSETLSLTCAVSGHSISHDHAWSWVRQPPGEGLEWIGFISYSGITNYNPSLQGRVTISRDNSKNTLYLQMNSLRAEDTAVYYCARSLARTTAMDYWGEGTLVTVSSASTKGPSVFPLAPSSKSTSGGTAALGCLVKDYFPEPVTVSWNSGALTSGVHTFPAVLQSSGLYSLSSVVTVPSSSLGTQTYICNVNHKPSNTKVDKKVEPKSCDKTHTCPPCPAPDLLGGDSVFLFPPKPKDTLMISRTPEVTCVVVDVSHEDPEVKFNWYVDGVEVHNAKTKPREEQDNSTYRVVSVLTVLHQDWLNGKEYKCKVSNKALPKPIEKTISKAKGQPREPQVYTLPPSRDELTKNQVSLTCLVKGFYPSDIAVEWESNGQPENNYKTTPPVLDSDGSFFLYSKLTVDKSRWQQGNVFSCSVMHEALHNHYTQESLSLSP
light: not shown
Take B3: the relative binding activity in assay [1] was 95; in assay [2], 68; in assay [3], 98; in assay [4] it was 138.

B4: IL6R-BP143/IL6R-L (antibody, human IgG1, kappa, name in EU numbering)
heavy: QVQLQESGPGLVKPSETLSLTCAVSGHSISHDHAWSWVRQPPGEGLEWIGFISYSGITNYNPSLQGRVTISRDNSKNTLYLQMNSLRAEDTAVYYCARSLARTTAMDYWGEGTLVTVSSASTKGPSVFPLAPSSKSTSGGTAALGCLVKDYFPEPVTVSWNSGALTSGVHTFPAVLQSSGLYSLSSVVTVPSSSLGTQTYICNVNHKPSNTKVDKKVEPKSCDKTHTCPPCPAPEYLGGDSVFLFPPKPKDTLMISRTPEVTCVVVDVSHEDPEVKFNWYVDGVEVHNAKTKPREEQYNSTYRVVSVLTVLHQDWLNGKEYKCKVSNAALPAPIEKTISKAKGQPREPQVYTLPPSRDELTKNQVSLTCLVKGFYPSDIAVEWESNGQPENNYKTTPPVLDSDGSFFLYSKLTVDKSRWQQGNVFSCSVMHEALHNHYTQESLSLSP
light: not shown
With B4, the relative binding activity is 114 in assay [1], 86 in assay [2], 143 in assay [3] and 133 in assay [4].

B5: IL6R-BP133/IL6R-L (antibody, human IgG1, kappa, name in EU numbering)
heavy: QVQLQESGPGLVKPSETLSLTCAVSGHSISHDHAWSWVRQPPGEGLEWIGFISYSGITNYNPSLQGRVTISRDNSKNTLYLQMNSLRAEDTAVYYCARSLARTTAMDYWGEGTLVTVSSASTKGPSVFPLAPSSKSTSGGTAALGCLVKDYFPEPVTVSWNSGALTSGVHTFPAVLQSSGLYSLSSVVTVPSSSLGTQTYICNVNHKPSNTKVDKKVEPKSCDKTHTCPPCPAPDYLGGDSVFLFPPKPKDTLMISRTPEVTCVVVDVSHEDPEVKFNWYVDGVEVHNAKTKPREEQYNSTYRVVSVLTVLHQDWLNGKEYKCKVSNKALPKPIEKTISKAKGQPREPQVYTLPPSRDELTKNQVSLTCLVKGFYPSDIAVEWESNGQPENNYKTTPPVLDSDGSFFLYSKLTVDKSRWQQGNVFSCSVMHEALHNHYTQESLSLSP
light: not shown
Consider B5, for which the relative binding activity in assay [1] was 114; in assay [2], 41; in assay [3], 151; in assay [4] it was 137.

B6: IL6R-BP089/IL6R-L (antibody, human IgG1, kappa, name in EU numbering)
heavy: QVQLQESGPGLVKPSETLSLTCAVSGHSISHDHAWSWVRQPPGEGLEWIGFISYSGITNYNPSLQGRVTISRDNSKNTLYLQMNSLRAEDTAVYYCARSLARTTAMDYWGEGTLVTVSSASTKGPSVFPLAPSSKSTSGGTAALGCLVKDYFPEPVTVSWNSGALTSGVHTFPAVLQSSGLYSLSSVVTVPSSSLGTQTYICNVNHKPSNTKVDKKVEPKSCDKTHTCPPCPAPEYLGGDSVFLFPPKPKDTLMISRTPEVTCVVVDVSHEDPEVKFNWYVDGVEVHNAKTKPREEQYNSTYRVVSVLTVLHQDWLNGKEYKCKVSNAALPKPIEKTISKAKGQPREPQVYTLPPSRDELTKNQVSLTCLVKGFYPSDIAVEWESNGQPENNYKTTPPVLDSDGSFFLYSKLTVDKSRWQQGNVFSCSVMHEALHNHYTQESLSLSP
light: not shown
With B6, the relative binding activity in assay [1] amounted to 136; in assay [2], 43; in assay [3] it was 186; in assay [4] it was 147.

B7: IL6R-BP088/IL6R-L (antibody, human IgG1, kappa, name in EU numbering)
heavy: QVQLQESGPGLVKPSETLSLTCAVSGHSISHDHAWSWVRQPPGEGLEWIGFISYSGITNYNPSLQGRVTISRDNSKNTLYLQMNSLRAEDTAVYYCARSLARTTAMDYWGEGTLVTVSSASTKGPSVFPLAPSSKSTSGGTAALGCLVKDYFPEPVTVSWNSGALTSGVHTFPAVLQSSGLYSLSSVVTVPSSSLGTQTYICNVNHKPSNTKVDKKVEPKSCDKTHTCPPCPAPELLGDDSVFLFPPKPKDTLMISRTPEVTCVVVDVSHEDPEVKFNWYVDGVEVHNAKTKPREEQYNSTYRVVSVLTVLHQDWLNGKEYKCKVSNAALPKPIEKTISKAKGQPREPQVYTLPPSRDELTKNQVSLTCLVKGFYPSDIAVEWESNGQPENNYKTTPPVLDSDGSFFLYSKLTVDKSRWQQGNVFSCSVMHEALHNHYTQESLSLSP
light: not shown
B7: the relative binding activity in assay [1] came out at 122; in assay [2], 25; in assay [3] it was 166; in assay [4], 161.

B8: IL6R-BP147/IL6R-L (antibody, human IgG1, kappa, name in EU numbering)
heavy: QVQLQESGPGLVKPSETLSLTCAVSGHSISHDHAWSWVRQPPGEGLEWIGFISYSGITNYNPSLQGRVTISRDNSKNTLYLQMNSLRAEDTAVYYCARSLARTTAMDYWGEGTLVTVSSASTKGPSVFPLAPSSKSTSGGTAALGCLVKDYFPEPVTVSWNSGALTSGVHTFPAVLQSSGLYSLSSVVTVPSSSLGTQTYICNVNHKPSNTKVDKKVEPKSCDKTHTCPPCPAPEYLGDDSVFLFPPKPKDTLMISRTPEVTCVVVDVSHEDPEVKFNWYVDGVEVHNAKTKPREEQYNSTYRVVSVLTVLHQDWLNGKEYKCKVSNAALPKPIEKTISKAKGQPREPQVYTLPPSRDELTKNQVSLTCLVKGFYPSDIAVEWESNGQPENNYKTTPPVLDSDGSFFLYSKLTVDKSRWQQGNVFSCSVMHEALHNHYTQESLSLSP
light: not shown
As to B8, the relative binding activity came out at 209 in assay [1], 24 in assay [2], 582 in assay [3] and 177 in assay [4].

B9: IL6R-BP144/IL6R-L (antibody, human IgG1, kappa, name in EU numbering)
heavy: QVQLQESGPGLVKPSETLSLTCAVSGHSISHDHAWSWVRQPPGEGLEWIGFISYSGITNYNPSLQGRVTISRDNSKNTLYLQMNSLRAEDTAVYYCARSLARTTAMDYWGEGTLVTVSSASTKGPSVFPLAPSSKSTSGGTAALGCLVKDYFPEPVTVSWNSGALTSGVHTFPAVLQSSGLYSLSSVVTVPSSSLGTQTYICNVNHKPSNTKVDKKVEPKSCDKTHTCPPCPAPELLGDDSVFLFPPKPKDTLMISRTPEVTCVVVDVSHEDPEVKFNWYVDGVEVHNAKTKPREEQYNSTYRVVSVLTVLHQDWLNGKEYKCKVSNAALPAPIEKTISKAKGQPREPQVYTLPPSRDELTKNQVSLTCLVKGFYPSDIAVEWESNGQPENNYKTTPPVLDSDGSFFLYSKLTVDKSRWQQGNVFSCSVMHEALHNHYTQESLSLSP
light: not shown
As for B9, the relative binding activity in assay [1] is 128; in assay [2], 64; in assay [3] it was 108; in assay [4] it was 121.
